Results reported in patent US20090274620A1 (WILEX, published 2009).

Molecular target: G250 antigen (MN antigen), complete protein, aa 1-459 (UniProt Q16790 38-459)
Experiment: immunohistochemistry of G250-negative cells transiently transfected with the complete cDNA

- binding result: binds
B1: monoclonal antibody G250 (murine, from hybridoma DSM ACC 2526) (antibody, IgG1, V domains shown)
VH: DVKLVESGGGLVKLGGSLKLSCAASGFTFSNYYMSWVRQTPEKRLELVAAINSDGGITYYLDTVKGRFTISRDNAKNTLYLQMSSLKSEDTALFYCARHRSGYFSMDYWGQGTSVTVSS
VL: DIVMTQSQRFMSTTVGDRVSITCKASQNVVSAVAWYQQKPGQSPKLLIYSASNRYTGVPDRFTGSGSGTDFTLTISNMQSEDLADFFCQQYSNYPWTFGGGTKLEIK
notes: also called MAbG250; MabG250
